The record followed here is publication PMC12660843, “Using phage display for rational engineering of a higher-affinity humanized 3’ phosphohistidine-specific antibody” (Communications Chemistry, 2025).

*1 amine or outer side, *2 acyl side, *3 side chain or, on linkers, in order; H or OH if unused. Where no end group is shown, it is not given here. [ ]: non-standard residue; d: D form. The star is where a group is joined. 3‑pTza = 3-phosphotriazolyl alanine (also given as 3-phosphoryl-triazolylalanine); 3‑pHis = 3-phosphohistidine, O=C([C@H](Cc1cn(P(=O)(O)O)cn1)N[*:1])[*:2]; Biotin = O=C1N[C@H]2[C@H](CS[C@H]2CCCCC(=O)*)N1; Ahx = NCCCCCC(=O)O

For experiment [1], the target named is T1, 3-pHis peptide (Biotin-AminocaproicAcid-A.G.A.G.H.A.G.A.G phosphorylated by phosphoramidate).
T1 construct: His-peptide, phosphorylated on His5; the phosphoramidate reaction gives a mixture of non-phosphorylated, 1-pHis, 3-pHis and di-pHis peptide; also called Biotinylated ACLYana-3-pHis; ACLYana-pHis; source: synthetic peptide, phosphorylated with potassium phosphoramidate; not shown: biotin, N-terminal, kept
T1 peptide: {Biotin-Ahx}-AGAG[3‑pHis]AGAG
In words: BLI; Octet RED96e; biotinylated peptides captured on streptavidin biosensors at 20 nM; Fab in solution, 20-200 nM; 1x HBS-T, 1% BSA.

In experiment [2] the target is 3-pTza peptide (Biotin-AminocaproicAcid-A.G.A.G.3-pTza.A.G.A.G). The experiment is described as above.
Experiment [3] shares this target. The description is as above. The source holds these as a separate data set.
Experiment [4] has as its target T1, 3-pHis peptide …. The experiment is described as follows: BLI; biotinylated peptide captured on streptavidin biosensors at 20 nM; IgG in solution at 20-200 nM; Octet HTX; 1x HBS-T, 1% BSA. Conditions: both partners purified.
In experiment [5] the target is T2, 3-pTza peptide (Biotin-AminocaproicAcid-A.G.A.G.3-pTza.A.G.A.G).
T2 chain: {Biotin-Ahx}-AGAG[3‑pTza]AGAG
Described as above. Conditions: both partners purified.

Experiment [6] has as its target 3-pTza peptide (Biotin-AminocaproicAcid-A.G.A.G.3-pTza.A.G.A.G). In words: BLI; Octet HTX; biotinylated peptides captured on streptavidin biosensors at 20 nM; IgG in solution, 20-200 nM; 1x HBS-T, 1% BSA.
The target in experiment [7] is T3, 3-pHis form of the a-subunit of SCS (30 kDa) (Homo sapiens (HEK293T, endogenous), UniProt P53597, 3-phosphohistidine (site not stated)).
T3 construct: alpha subunit of SCS (succinyl-CoA synthetase), 30 kDa band on the immunoblot; source: endogenous, HEK293T lysate
T3 sequence (P53597 41-346): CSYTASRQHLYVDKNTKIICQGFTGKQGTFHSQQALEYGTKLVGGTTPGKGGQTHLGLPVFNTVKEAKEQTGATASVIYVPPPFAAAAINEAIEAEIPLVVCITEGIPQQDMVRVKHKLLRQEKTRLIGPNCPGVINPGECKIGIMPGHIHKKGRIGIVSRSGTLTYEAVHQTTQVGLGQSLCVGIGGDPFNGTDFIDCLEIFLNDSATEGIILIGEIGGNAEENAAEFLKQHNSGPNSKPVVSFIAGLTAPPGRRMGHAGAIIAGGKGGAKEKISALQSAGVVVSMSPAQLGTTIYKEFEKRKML
In words: immunoblot; HEK293T whole cell lysate, 30 µg, alkaline 12% SDS-PAGE and alkaline blotting at 4 °C; 0.5 µg/mL IgG as primary antibody, 1 h at room temperature; HRP secondary antibody. The following applies: one partner purified.

The target in experiment [8] is T4, 3-pHis form of ACLY (120 kDa) (Homo sapiens (HEK293T, endogenous), UniProt P53396, 3-phosphohistidine (site not stated)).
T4 construct: ACLY (ATP-citrate lyase), 120 kDa band on the immunoblot; source: endogenous, HEK293T lysate
T4 sequence (P53396 whole entry): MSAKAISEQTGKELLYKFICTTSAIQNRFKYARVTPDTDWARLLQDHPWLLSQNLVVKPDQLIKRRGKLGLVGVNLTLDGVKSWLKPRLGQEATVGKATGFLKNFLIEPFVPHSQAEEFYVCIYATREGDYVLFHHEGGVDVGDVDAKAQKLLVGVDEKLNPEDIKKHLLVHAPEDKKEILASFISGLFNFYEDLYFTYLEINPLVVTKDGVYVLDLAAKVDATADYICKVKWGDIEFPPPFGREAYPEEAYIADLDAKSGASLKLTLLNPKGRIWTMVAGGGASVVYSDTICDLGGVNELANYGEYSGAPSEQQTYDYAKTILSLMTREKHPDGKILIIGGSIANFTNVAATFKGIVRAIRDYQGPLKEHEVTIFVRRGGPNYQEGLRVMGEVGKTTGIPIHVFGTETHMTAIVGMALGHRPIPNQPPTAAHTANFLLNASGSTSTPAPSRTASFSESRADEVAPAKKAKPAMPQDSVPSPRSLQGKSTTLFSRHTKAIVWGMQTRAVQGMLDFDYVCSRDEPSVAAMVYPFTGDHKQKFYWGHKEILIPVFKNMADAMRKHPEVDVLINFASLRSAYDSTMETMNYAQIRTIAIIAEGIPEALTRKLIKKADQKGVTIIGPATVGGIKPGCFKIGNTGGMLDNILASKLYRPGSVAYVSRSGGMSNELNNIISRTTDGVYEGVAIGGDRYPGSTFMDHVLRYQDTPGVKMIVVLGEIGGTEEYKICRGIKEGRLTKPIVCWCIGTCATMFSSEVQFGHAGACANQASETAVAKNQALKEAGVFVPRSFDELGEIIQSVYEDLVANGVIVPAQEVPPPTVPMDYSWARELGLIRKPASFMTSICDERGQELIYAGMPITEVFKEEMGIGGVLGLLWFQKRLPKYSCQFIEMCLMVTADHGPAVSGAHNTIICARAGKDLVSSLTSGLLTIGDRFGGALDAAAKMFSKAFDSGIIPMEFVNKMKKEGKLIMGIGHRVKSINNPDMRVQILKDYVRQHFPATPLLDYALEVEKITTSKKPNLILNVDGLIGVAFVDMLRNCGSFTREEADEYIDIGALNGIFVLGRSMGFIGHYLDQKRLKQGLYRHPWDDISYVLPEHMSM
The experiment is described as above. Conditions: one partner purified.

In experiment [9] the target is T1, 3-pHis peptide …. In words: BLI; Octet HTX; biotinylated peptides captured on streptavidin biosensors at 20 nM; IgG in solution, 20-200 nM; 1x HBS-T, 1% BSA.
The target in experiment [10] is T5, 3-pTza peptide (Biotin-AminocaproicAcid-A.G.A.G.3-pTza.A.G.A.G) (synthetic construct).
T5 chain: {Biotin-Ahx}-AGAG[3‑pTza]AGAG
The experiment is described as follows: BLI.

B1: hSC44 Fab (Fab, V domains shown)
VH: EVQLVESGGGLVQPGGSLRLSCTASGFSIDSYGFSWVRQAPGKGLEHIGYLTAGGRAFYASWAKSRSTITRNTNENTVTLKMNSLRAEDTAVYYCAKLGSGNPVAIWGQGTLVTVSS
VL: DIQMTQSPSSLSASVGDRVTITCRASQSVWRNKNVAWYQQKPGKAPKRLIYAIASLYSGVPSRFSGSGSGTDFTLTISSLQPEDFATYYCVGHYGSENDAYYAFGQGTKVEIK
As to B1, the Kd was 40.5 nM in experiment [1], 1.5 nM in experiment [2] and 1.62 nM in experiment [3]. Moreover, the koff in experiment [1] is 0.00235 s⁻¹; in [3], 8.16e-05 s⁻¹. The results for the kon in experiment [1] and in experiment [3] were 57900 M⁻¹ s⁻¹ and 50600 M⁻¹ s⁻¹, respectively.

B2: hSC44.20 IgG (antibody, V domains shown)
VH: EVQLVESGGGLVQPGGSLRLSCTASGFSIDSYGFSWVRQAPGKGLEHIGYLTAGGRAFYASWAKSRSTITRNTNENTVTLKMNSLRAEDTAVYYCAKLGTGSRFAIWGQGTLVTVSS
VL: DIQLTQSPSSLSASVGDRVTITCRASQSVWRNKNVAWYQQKPGKAPKRLIYAIASLYSGVPSRFSGSGSGTDFTLTISSLQPEDFATYYCVGHYGSENDAYYAFGQGTKVEIK
notes: human IgG1, kappa light chain
In turn, B2 gave a Kd in experiment [4] of 21 nM. In experiment [5], this molecule registered a koff of less than 1e-07 s⁻¹ and a kon of 257000 M⁻¹ s⁻¹.

B3: hSC44.20 IgG (antibody, V domains shown)
VH: EVQLVESGGGLVQPGGSLRLSCTASGFSIDSYGFSWVRQAPGKGLEHIGYLTAGGRAFYASWAKSRSTITRNTNENTVTLKMNSLRAEDTAVYYCAKLGTGSRFAIWGQGTLVTVSS
VL: DIQMTQSPSSLSASVGDRVTITCRASQSVWRNKNVAWYQQKPGKAPKRLIYAIASLYSGVPSRFSGSGSGTDFTLTISSLQPEDFATYYCVGHYGSENDAYYAFGQGTKVEIK
notes: as the heavy chain of m2 with the stated CDR-H3 changes (Kabat numbering); as the light chain of m1; source: Expi293, transfected, purified (CaptoL, SEC); copies: 2 + 2
B3 yielded a Kd in experiment [6] of less than 0.001 nM. In addition, the binding result in experiment [7] and in experiment [8] was “binds” each time.

B4: hSC44.20.N32F^L IgG (antibody, V domains shown)
VH: EVQLVESGGGLVQPGGSLRLSCTASGFSIDSYGFSWVRQAPGKGLEHIGYLTAGGRAFYASWAKSRSTITRNTNENTVTLKMNSLRAEDTAVYYCAKLGTGSRFAIWGQGTLVTVSS
VL: DIQMTQSPSSLSASVGDRVTITCRASQSVWRNKFVAWYQQKPGKAPKRLIYAIASLYSGVPSRFSGSGSGTDFTLTISSLQPEDFATYYCVGHYGSENDAYYAFGQGTKVEIK
notes: as the heavy chain of m4 (heavy chain of m2 with the stated CDR-H3 changes, Kabat numbering); as the light chain of m1 with N32F in CDR-L1 (Kabat numbering); source: Expi293, transfected, purified (CaptoL, SEC); copies: 2 + 2
Consider B4, for which the Kd was 1.6 nM in experiment [9] and less than 1.54 nM in experiment [6]. In addition, the binding result in experiment [7] and in [8] was “binds” in each case.

B5: hSC44 IgG (antibody, V domains shown)
VH: EVQLVESGGGLVQPGGSLRLSCTASGFSIDSYGFSWVRQAPGKGLEHIGYLTAGGRAFYASWAKSRSTITRNTNENTVTLKMNSLRAEDTAVYYCAKLGSGNPVAIWGQGTLVTVSS
VL: DIQMTQSPSSLSASVGDRVTITCRASQSVWRNKNVAWYQQKPGKAPKRLIYAIASLYSGVPSRFSGSGSGTDFTLTISSLQPEDFATYYCVGHYGSENDAYYAFGQGTKVEIK
B5 had a Kd in experiment [6] of 1.2 nM. The molecule also had a dissociation rate constant (koff) in experiment [10] of 9.3e-05 s⁻¹.

B6: hSC44.20.N32Y^L IgG (antibody, V domains shown)
VH: EVQLVESGGGLVQPGGSLRLSCTASGFSIDSYGFSWVRQAPGKGLEHIGYLTAGGRAFYASWAKSRSTITRNTNENTVTLKMNSLRAEDTAVYYCAKLGTGSRFAIWGQGTLVTVSS
VL: DIQMTQSPSSLSASVGDRVTITCRASQSVWRNKYVAWYQQKPGKAPKRLIYAIASLYSGVPSRFSGSGSGTDFTLTISSLQPEDFATYYCVGHYGSENDAYYAFGQGTKVEIK
B6: the Kd is 9.5 nM in experiment [9] and less than 0.001 nM in experiment [6].
